Experimental data reported in article doi:10.1101/2025.05.08.652848 (bioRxiv, 2025).
*: point of attachment. Biotin = O=C1N[C@H]2[C@H](CS[C@H]2CCCCC(=O)*)N1

T1: RXRA^WT:PPARG LBD heterodimer (human, UniProt P37231;P19793)
T1 sequence 1: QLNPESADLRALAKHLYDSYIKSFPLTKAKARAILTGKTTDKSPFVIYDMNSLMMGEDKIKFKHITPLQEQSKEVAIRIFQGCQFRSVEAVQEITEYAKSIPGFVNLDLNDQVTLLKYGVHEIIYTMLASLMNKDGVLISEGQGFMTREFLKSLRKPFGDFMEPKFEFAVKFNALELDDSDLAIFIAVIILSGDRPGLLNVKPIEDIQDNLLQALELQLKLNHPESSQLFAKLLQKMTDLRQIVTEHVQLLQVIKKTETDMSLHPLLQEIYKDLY
T1 sequence 2: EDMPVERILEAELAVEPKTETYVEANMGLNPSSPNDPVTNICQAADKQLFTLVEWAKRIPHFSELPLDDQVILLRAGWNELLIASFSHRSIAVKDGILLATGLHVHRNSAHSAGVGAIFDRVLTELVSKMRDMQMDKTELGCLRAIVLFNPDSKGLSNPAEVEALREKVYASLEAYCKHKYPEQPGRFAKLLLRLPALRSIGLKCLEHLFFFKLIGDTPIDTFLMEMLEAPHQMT

B1: biotinylated NCOR1 ID2 peptide (peptide)
peptide: Biotin-GHSFADPASNLGLEDIIRKALMG-NH2
SMILES: CC[C@H](C)[C@H](NC(=O)[C@H](CC(=O)O)NC(=O)[C@H](CCC(=O)O)NC(=O)[C@H](CC(C)C)NC(=O)CNC(=O)[C@H](CC(C)C)NC(=O)[C@H](CC(N)=O)NC(=O)[C@H](CO)NC(=O)[C@H](C)NC(=O)[C@@H]1CCCN1C(=O)[C@H](CC(=O)O)NC(=O)[C@H](C)NC(=O)[C@H](Cc1ccccc1)NC(=O)[C@H](CO)NC(=O)[C@H](Cc1c[nH]cn1)NC(=O)CNC(=O)CCCC[C@@H]1SC[C@@H]2NC(=O)N[C@@H]21)C(=O)N[C@H](C(=O)N[C@@H](CCCNC(=N)N)C(=O)N[C@@H](CCCCN)C(=O)N[C@@H](C)C(=O)N[C@@H](CC(C)C)C(=O)N[C@@H](CCSC)C(=O)NCC(N)=O)[C@@H](C)CC
B2: biotinylated MED1 LxxLL peptide (peptide)
peptide: Biotin-VSSMAGNTKNHPMLMNLLKDNPAQ-NH2
SMILES: CSCC[C@H](NC(=O)[C@H](CO)NC(=O)[C@H](CO)NC(=O)[C@@H](NC(=O)CCCC[C@@H]1SC[C@@H]2NC(=O)N[C@@H]21)C(C)C)C(=O)N[C@@H](C)C(=O)NCC(=O)N[C@@H](CC(N)=O)C(=O)N[C@H](C(=O)N[C@@H](CCCCN)C(=O)N[C@@H](CC(N)=O)C(=O)N[C@@H](Cc1c[nH]cn1)C(=O)N1CCC[C@H]1C(=O)N[C@@H](CCSC)C(=O)N[C@@H](CC(C)C)C(=O)N[C@@H](CCSC)C(=O)N[C@@H](CC(N)=O)C(=O)N[C@@H](CC(C)C)C(=O)N[C@@H](CC(C)C)C(=O)N[C@@H](CCCCN)C(=O)N[C@@H](CC(=O)O)C(=O)N[C@@H](CC(N)=O)C(=O)N1CCC[C@H]1C(=O)N[C@@H](C)C(=O)N[C@@H](CCC(N)=O)C(N)=O)[C@@H](C)O

How the values were obtained:
[1] = biological target: His-PPARG LBD (human PPARG ligand-binding domain, residues 231 to 505), wild type (human) (UniProt P37231); test: AlphaScreen or HTRF
[2] = biological target: T1, RXRA^WT:PPARG LBD heterodimer; test: AlphaScreen or HTRF
[3] = biological target: N-terminal Avi-tagged PPARG LBD, FTX-6746-modified (human); test: SPR
[4] = biological target: N-terminal Avi-tagged PPARG LBD, unmodified (DMSO) (human); test: SPR

| Molecule | Kd [1] | binding result [2] | fraction of PPARG capable of binding CoA [3] | fraction of PPARG capable of binding CoA [4] | Kd [2] |
| --- | --- | --- | --- | --- | --- |
| biotinylated MED1 LxxLL peptide | > 2500 nM |  |  |  |  |
| B1 |  | binds |  |  |  |
| B2 |  | binds | 34% | 82% | 270 nM |
